One data set has as its target T1, haptoglobin 1-1 (Homo sapiens, UniProt P00738).
T1 construct: Hp 1-1 is composed of two α^1β dimers and has a molecular weight of about 98 kDa
T1 sequence (P00738 19-347 isoform P00738-2 limits assumed): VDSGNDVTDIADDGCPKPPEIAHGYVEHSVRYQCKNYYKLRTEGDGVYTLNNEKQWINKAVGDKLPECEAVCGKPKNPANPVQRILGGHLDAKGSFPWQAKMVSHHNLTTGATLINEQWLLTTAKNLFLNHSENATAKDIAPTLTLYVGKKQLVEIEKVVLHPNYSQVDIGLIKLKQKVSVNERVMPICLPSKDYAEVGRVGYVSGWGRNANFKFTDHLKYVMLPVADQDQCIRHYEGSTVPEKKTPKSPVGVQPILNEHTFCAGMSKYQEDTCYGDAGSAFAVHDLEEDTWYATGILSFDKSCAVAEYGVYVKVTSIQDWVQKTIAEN
T1 sequence (P00738 103-347 isoform P00738-2 limits assumed): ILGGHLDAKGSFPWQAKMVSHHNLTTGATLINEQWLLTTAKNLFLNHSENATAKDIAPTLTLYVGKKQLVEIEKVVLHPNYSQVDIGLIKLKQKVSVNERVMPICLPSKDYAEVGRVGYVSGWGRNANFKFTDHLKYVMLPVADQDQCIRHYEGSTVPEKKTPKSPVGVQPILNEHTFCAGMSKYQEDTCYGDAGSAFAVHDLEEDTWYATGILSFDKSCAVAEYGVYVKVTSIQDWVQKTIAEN
The data set can be described thus: Complex formation of modified hemoglobins with haptoglobin 1-1 (size exclusion / anion exchange chromatography). The data set is classed as binding. To be noted: THb-PQ mixture with haptoglobin 1-1, room temperature, 21 hours. Background: SEC sorts molecules by how far they enter the pores of the column.

The test system of another data set is plasmid DNA (pCMVbeta). The experiment in a line: Gel mobility shift assay of DNA binding. To be noted: 50 to 1600 ng of protein, 140 ng DNA. As for the experimental part: Gel mobility shift assays were conducted to evaluate the stoichiometry of binding of plasmid DNA (pCMVbeta) to the THb-Kn conjugates. This gel electrophoretic method is based on the observation that the migratory properties of the DNA are altered upon binding protein. Neither proteins nor DNA-protein complexes in which protein constitutes a significant part of their mass enter 1% agarose gels. If mixtures with an increasing THb-Kn to DNA ratio are analyzed, it is observed that the DNA band disappears at and above the ratio that corresponds to the stoichiometry of the complex. For each of the four conjugates and for the THb-K26kDa-Hp complex, solutions containing from 0.4 to 6400 ng of the conjugate (this weight based on the hemoglobin component) in 32 μL of 20 mM HEPES pH 7.3 containing 150 mM NaCl were prepared. […] The samples (15 μL) were analyzed on a 1% agarose gel containing ethidium bromide (0.2 μg/mL). The amount of conjugate which prevented DNA entry into the gel was determined.
FIG. 4A (left) and 4B (right) are depictions of gel mobility shift assays of haptoglobin-hemoglobin-DNA conjugates produced according to Example 4. […] The results for THb-K26kDa are in good agreement with the fluorescence quench assay which indicated 86% of fluorescence decrease at the same THb-K26kDa to DNA ratio. […]

A further data set has as its target T2, rat haptoglobin (Rattus norvegicus, UniProt P06866).
T2 construct: combined with rat serum containing haptoglobin; from tissue; host or cells: rat serum
T2 sequence (P06866 19-101 limits assumed): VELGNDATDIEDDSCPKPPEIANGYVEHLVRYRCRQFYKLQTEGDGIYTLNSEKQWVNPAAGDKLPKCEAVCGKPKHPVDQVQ
T2 sequence (P06866 103-347 limits assumed): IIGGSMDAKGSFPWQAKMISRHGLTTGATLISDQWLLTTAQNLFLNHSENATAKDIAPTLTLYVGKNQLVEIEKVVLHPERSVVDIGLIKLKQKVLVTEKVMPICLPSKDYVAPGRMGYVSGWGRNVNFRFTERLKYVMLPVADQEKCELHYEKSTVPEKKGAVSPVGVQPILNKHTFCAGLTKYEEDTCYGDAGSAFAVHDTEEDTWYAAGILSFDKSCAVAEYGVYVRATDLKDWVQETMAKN
The experiment in a line: Binding of modified human Hb ([3H]-NEM-Hb) to rat haptoglobin in plasma (SEC). How it is done: 1 mCi of ^3H-N-ethylmaleimide ([^3H]-NEM) in pentane was evaporated in 0.5 mL phosphate buffer, and 25 mg of Hb in 1 mL buffer was added giving a final NEM:Hb ratio of 0.06:1, or 37 μCi/mg Hb. RP HPLC analysis after 24 hours at 4° C. indicated incorporation of the majority of the radiolabel into a modified beta peak. After 47 hr, a 15-fold excess (over βCys93 thiol) of non-radiolabeled NEM was added. Salts and unbound NEM were removed by gel filtration, and the final concentration adjusted to 10.2 mg Hb/mL. A small portion of this material (^3H-NEM-Hb) was then combined with rat serum containing haptoglobin to determine if all radiolabeled components bound to Hp. The Hb-binding capacity of the rat serum was adjusted to […] Hb/mL serum. 0.5 and 2.0 equivalents of ^3H-NEM-Hb, based on Hb-binding capacity, were combined with serum and analyzed -by size exclusion chromatography eluted under dissociating, non-denaturing conditions using 0.5 M MgCl2, 25 mM Tris pH 7.4 (FIG. 15). In the ^3H-NEM-Hb preparation, all radioactivity was associated with a 32 kDa peak. […] 7.3% of the radioactivity combining with plasma components appears in a high MW peak at 22 minutes.

Data set [1] in a line: Biodistribution of modified Hb and haptoglobin complexes in rat. To be noted: for AUC Liver / AUC Plasma: dose = ug Hb/g body weight, no extrapolation to time zero.
Procedure: The ability of Hp to target modified Hb to the liver was measured in a radioisotope biodistribution study. Two test articles were prepared from purified human HbA0 modified with tritium-labeled N-ethylmaleimide ([^3H]-NEM-Hb): [^3H]-NEM-Hb alone in Ringer's lactate, and [^3H]-NEM-Hb complexed to a slight excess of rat haptoglobin in rat plasma. Three treatment groups were analyzed; (A) normal rats received the modified Hb-haptoglobin complex in plasma, (B) normal rats received the modified Hb only (approximately twice the Hb-binding capacity of the rat), and (C) haptoglobin-depleted rats received the modified Hb only. Approximately 3 mg of Hb were administered to conscious Sprague-Dawley rats in each case. Liver and plasma samples were collected at 30, 60 and 120 minutes post-administration and radioactivity counted after solubilization and quenching.
Setting [2] is: 30 minutes, haptoglobin-depleted rats (group C).
The mark [3] stands for this setting: 30 minutes, normal rats (groups A, B).
The mark [4] stands for this setting: haptoglobin-depleted rats (group C).

Results on 3 substances are retold here after patent US6479637B1, “Hemoglobin-haptoglobin complexes” (Hemsol Inc., priority 1998, dated 2002).

Take “THb: TTDS (trimesoyl tris(3,5-dibromosalicylate)) cross-linked hemoglobin, hydrolyzed, without attached agent [reference compound]”: in the data set with haptoglobin 1-1, the “reacted with Hp (anion exchange chromatography)” value is listed as 74%. Moreover, the “DNA binding (change in DNA migration)” value with plasmid DNA (pCMVbeta) is “does not bind DNA”.

As to “[^3H]-NEM-Hb: purified human HbA0 modified with tritium-labeled N-ethylmaleimide; given alone to groups B and C”, in the data set with rat haptoglobin, the “capability of all components to bind rat haptoglobin in plasma” value is given as “capable of binding rat haptoglobin in plasma”. Moreover, the “radioactivity appearing in the Hb-haptoglobin peak” value in the data set with rat haptoglobin (0.5 eq. based on Hb-binding capacity of rat serum, SEC) was “all radioactivity appeared in the Hb-haptoglobin peak”. Moreover, the “binding state at haptoglobin saturation” value with rat haptoglobin (2.0 eq. based on Hb-binding capacity of rat serum, SEC) was “haptoglobin is saturated and excess ^3H-NEM-Hb remains unbound”. Also, in the data set with rat haptoglobin (rat serum, SEC), the “radioactivity combining with plasma components appearing in high MW peak at 22 minutes” value is recorded as 7.3%. Further, in data set [1] (setting [2]), the “dose in the plasma and liver compartments relative to groups A and B” value was “roughly half that amount”; the “total dose in the liver” value was found to be 11%. Also, in data set [1] (setting [3]), the “dose in the plasma and liver compartments” value was determined as 60%; the “total dose in the liver” value was “approximately 20%”. Moreover, the “liver to plasma concentration/dose ratio” value in data set [1] (120 minutes, normal rats (groups A, B)) was “approximately 4 times”. In data set [1] (120 minutes, normal rats vs haptoglobin-depleted rats given modified Hb only), the “liver content relative to group C” value was 2 fold. In data set [1] (setting [4]), the “AUC Liver” value was 234.0 ug Hb · min/g/dose and the “AUC Plasma” value is 163.0 ug Hb · min/mL/dose. In data set [1] (normal rats (groups A, B) vs haptoglobin-depleted rats), the “liver uptake (area under distribution curve) relative to group C” value is reported as “approximately twice that of group C”. Besides, in data set [1] (normal rats (groups A, B)), the “AUC Liver” value is 510.4 ug Hb · min/g/dose and the “AUC Plasma” value is given as 284.2 ug Hb · min/mL/dose.

Turning to “unmodified hemoglobin: unmodified (uncross-linked) hemoglobin remaining in the THb-PQ product mixture”, in the data set with haptoglobin 1-1, the “reacted with Hp (anion exchange chromatography)” value is recorded as “all”.
